A word on the stoichiometry N: it is a count of units in the complex or per binding partner.

The target of the assay is Mycobacterium tuberculosis ClpC2 (full length, wild type) (Mycobacterium tuberculosis). Nature of the assay: SEC. (Size exclusion chromatography separates by hydrodynamic size, large species first.)

Substance “Mycobacterium tuberculosis ClpC2 (full length, wild type) (natural protein)” had a stoichiometry N of 2.

These data come from publication PMC10030653, “ClpC2 protects mycobacteria against a natural antibiotic targeting ClpC1-dependent protein degradation” (Communications Biology, 2023).
